The values that follow come from patent publication US20150158912A1.

In assay [1] the target is wild type mouse IL-17RB-SEFIR (WT-RB-SEFIR) (mouse) (UniProt Q9JIP3). The assay can be described thus: SPR; printed as Ka. A general note: Surface plasmon resonance follows binding to a sensor surface in real time, without labels.
Assay [2] has as its target crystallized mutant mouse IL-17RB-SEFIR (RB-SEFIR-M; K364A, K367A, K368A and K369A quadruple mutant, residues 325-486) (mouse) (UniProt Q9JIP3). Description: SPR; printed as Ka.

Usually Kd stands for a measure of binding affinity in units of concentration.

Sequence of recombinant mouse Act1 SEFIR domain (mAct1-SEFIR, residues 391 to 537) (Q8N7N6 391-537): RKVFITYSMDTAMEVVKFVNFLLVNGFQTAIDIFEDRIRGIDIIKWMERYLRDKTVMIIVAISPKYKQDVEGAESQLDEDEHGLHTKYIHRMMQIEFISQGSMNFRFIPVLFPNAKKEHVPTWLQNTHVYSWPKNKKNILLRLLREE
Sequence of wild type mouse IL-17RB-SEFIR (WT-RB-SEFIR) (mouse) (Q9JIP3 314-486): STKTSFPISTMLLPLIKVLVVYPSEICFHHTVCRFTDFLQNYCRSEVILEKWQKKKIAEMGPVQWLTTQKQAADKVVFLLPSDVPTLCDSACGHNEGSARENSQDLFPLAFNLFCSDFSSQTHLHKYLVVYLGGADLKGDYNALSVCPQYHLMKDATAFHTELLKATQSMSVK
Sequence of crystallized mutant mouse IL-17RB-SEFIR (RB-SEFIR-M; K364A, K367A, K368A and K369A quadruple mutant, residues 325-486) (mouse) (Q9JIP3 325-486 K364A/K367A/K368A/K369A): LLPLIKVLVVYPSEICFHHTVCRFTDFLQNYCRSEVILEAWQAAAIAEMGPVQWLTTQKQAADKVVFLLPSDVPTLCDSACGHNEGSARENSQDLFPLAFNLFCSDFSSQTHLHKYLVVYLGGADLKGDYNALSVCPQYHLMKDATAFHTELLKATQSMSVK

As to “recombinant mouse Act1 SEFIR domain (mAct1-SEFIR, residues 391 to 537) (from UniProt Q8N7N6 391-537)”, the dissociation constant (Kd) in assay [1] is 1.4 µM; in assay [2] it was 1.5 µM.
